Positions count from the first letter of the chain named.

For test [1], the target named is T1, secretion-type human IAP antigen (human, UniProt Q08722 19-142, limits assumed).
T1 construct: also called human IAP antigen (soluble, COS7 supernatant)
The test is described as follows: competitive ELISA on captured secretion-type human IAP; competitor biotinized MABL-2. On the procedure:
The binding activity of the reconstructed single chain Fv of antibody MABL-2 was measured based on the inhibiting activity against the binding of mouse monoclonal antibodies to the antigen.
The anti-FLAG antibody adjusted to 1 μg/ml was added to each well on 96-well plate and incubated at 37° C. for 2 hours. After washing, blocking was performed with 1% BSA-PBS. After incubating and washing at a room temperature, the culture supernatant of COS7 cells into which the secretion-type human IAP antigen gene (SEQ ID No. 26) had been introduced was diluted with PBS into twofold volume and added to each well. After incubating and washing at a room temperature, a mixture of 50 μl of the biotinized MABL-2 antibody adjusted to 100 ng/ml and 50 μl of sequentially diluted supernatant of the COS7 cells expressing the reconstructed single chain Fv of antibody MABL-2 were added into each well. After incubating and washing at a room temperature, the alkaline phosphatase-conjugated streptoavidin (Zymed) was added into each well. After incubating and washing at a room temperature, the substrate solution (SIGMA) was added and absorbance of the reaction mixture in each well was measured at 405 nm.
In general terms: An ELISA detects its analyte on a solid surface through an enzyme-linked reagent.

For test [2], the target named is T2, human Integrin Associated Protein (IAP) expressed on mouse leukemia cell line L1210 (human, UniProt Q08722 19-323).
T2 construct: whole, on cells; also called human IAP; hIAP/L1210
T2 sequence (Q08722 19-323): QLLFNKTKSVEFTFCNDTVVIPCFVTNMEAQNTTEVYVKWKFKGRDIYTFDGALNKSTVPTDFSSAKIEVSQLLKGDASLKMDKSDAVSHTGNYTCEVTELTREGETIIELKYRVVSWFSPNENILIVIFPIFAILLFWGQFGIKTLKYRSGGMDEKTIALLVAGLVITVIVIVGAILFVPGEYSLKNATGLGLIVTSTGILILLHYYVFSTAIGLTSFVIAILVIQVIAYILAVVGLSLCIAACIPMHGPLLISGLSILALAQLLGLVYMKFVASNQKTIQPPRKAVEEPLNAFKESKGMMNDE
The test is described as follows: flow cytometry, COS7 supernatant on hIAP/L1210 cells, anti-FLAG and FITC anti-mouse IgG. On the procedure:
Flow cytometry was performed using the aforementioned COS7 cells culture supernatant to measure the binding to the antigen. The culture supernatant of the COS7 cells expressing the reconstructed single chain Fv of antibody MABL-2 or the culture supernatant of COS7 cells transformed with pCHO1 vector as a control was added to 2×10⁵ cells of the mouse leukemia cell line L1210 expressing human Integrin Associated Protein (IAP) or the cell line L1210 transformed with pCOS1 as a control. After incubating on ice and washing, the mouse anti-FLAG antibody (SIGMA) was added. Then the cells were incubated and washed. Then, the FITC labeled anti-mouse IgG antibody (BECTON DICKINSON) was added thereto and the cells were incubated and washed again. Subsequently, the fluorescence intensity was measured using the FACScan apparatus (BECTON DICKINSON).
Flow cytometry was performed using the culture supernatants of COS7 cells prepared in Example 6.3 (1) to measure the binding of the MABL2-scFVs and sc(Fv)₂ to human Integrin Associated Protein (IAP) antigen. The culture supernatants to be tested or a culture supernatant of COS7 cells as a control was added to 2×10⁵ cells of the mouse leukemia cell line L1210 expressing human IAP. After incubating on ice and washing, 10 μg/mL of the mouse anti-FLAG antibody (SIGMA) was added and then the cells were incubated and washed. Then, the FITC labeled anti-mouse IgG antibody (BECTON DICKINSON) was added thereto and the cells were incubated and washed again. The fluorescence intensity was measured using the FACScan apparatus (BECTON DICKINSON). […] (see FIGS. 40a and 40b).
In general terms: A flow cytometer gives signals particle by particle.

The target of test [3] is T3, human TPO receptor (MPL) expressed on Ba/F3 cells (human, UniProt P40238 26-635).
T3 sequence (looked up): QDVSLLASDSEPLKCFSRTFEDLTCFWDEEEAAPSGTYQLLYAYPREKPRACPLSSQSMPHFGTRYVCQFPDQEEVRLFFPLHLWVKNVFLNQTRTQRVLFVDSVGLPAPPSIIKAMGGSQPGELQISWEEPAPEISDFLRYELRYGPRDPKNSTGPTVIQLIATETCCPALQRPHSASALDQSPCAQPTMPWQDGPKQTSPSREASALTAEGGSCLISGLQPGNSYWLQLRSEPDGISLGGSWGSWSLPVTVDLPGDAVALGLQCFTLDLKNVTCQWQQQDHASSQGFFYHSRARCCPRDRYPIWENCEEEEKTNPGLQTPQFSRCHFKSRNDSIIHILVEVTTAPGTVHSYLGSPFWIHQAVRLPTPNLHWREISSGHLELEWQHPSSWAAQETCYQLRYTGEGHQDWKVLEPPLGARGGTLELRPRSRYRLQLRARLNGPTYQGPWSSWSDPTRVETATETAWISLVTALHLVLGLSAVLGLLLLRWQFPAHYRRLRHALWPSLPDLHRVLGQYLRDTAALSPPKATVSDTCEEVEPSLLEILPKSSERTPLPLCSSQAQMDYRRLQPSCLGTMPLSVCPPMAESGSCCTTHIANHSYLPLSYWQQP
The test is described as follows: cell-based or functional assay.

For test [4], the target named is T2, human Integrin Associated Protein (IAP) …. The test is described as follows: flow cytometry, COS7 supernatant on hIAP/L1210 cells, FITC anti-human IgG. The protocol:
Flow cytometry was performed using the aforementioned culture supernatant of COS7 cells to measure binding to the antigen. The culture supernatant of the COS7 cells expressing the chimera MABL-1 antibody or the COS7 cells expressing the chimera MABL-2 antibody, or human IgG antibody (SIGMA) as a control was added to 4×10⁵ cells of mouse leukemia cell line L1210 expressing human IAP and incubated on ice. After washing, the FITC-labeled anti-human IgG antibody (Cappel) was added thereto. After incubating and washing, the fluorescence intensity thereof was measured using the FACScan apparatus (BECTON DICKINSON).

T1 sequence (Q08722 other isoform, or with tags, fused parts or gaps limits assumed): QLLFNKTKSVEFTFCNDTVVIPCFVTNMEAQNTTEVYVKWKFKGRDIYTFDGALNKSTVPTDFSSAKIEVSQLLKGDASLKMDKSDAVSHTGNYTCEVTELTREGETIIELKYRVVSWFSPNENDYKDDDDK

B1: reconstructed single chain Fv of antibody MABL-2 (pCHOM2, COS7 culture supernatant) (scFv)
scFv: QVQLQQSGPELVKPGASVKMSCKASGYTFANHVIHWVKQKPGQGLEWIGYIYPYNDGTKYNEKFKDKATLTSDKSSTTAYMDLSSLASEDSAVYYCARGGYYTYDDWGQGTTLTVSSGGGGSGGGGSGGGGSDVVMTQSPLSLPVSLGDQASISCRSSQSLVHSNGKTYLHWYLQKPGQSPKLLIYKVSNRFSGVPDRFSGSGSVTDFTLMISRVEAEDLGVYFCSQSTHVPYTFGGGTKLEIKDYKDDDDK
notes: Unpurified COS7 supernatant; also called MABL2-scFv; MABL2-scFv/COS7
With B1, the binding result in test [1] and in test [2] was “binds” in each case.

B2: antibody MABL-2 sc(Fv)2 (scFv)
scFv: QVQLQQSGPELVKPGASVKMSCKASGYTFANHVIHWVKQKPGQGLEWIGYIYPYNDGTKYNEKFKDKATLTSDKSSTTAYMDLSSLASEDSAVYYCARGGYYTYDDWGQGTTLTVSSGGGGSGGGGSGGGGSDVVMTQSPLSLPVSLGDQASISCRSSQSLVHSNGKTYLHWYLQKPGQSPKLLIYKVSNRFSGVPDRFSGSGSVTDFTLMISRVEAEDLGVYFCSQSTHVPYTFGGGTKLEIKGGGGSGGGGSGGGGSVDSQVQLQQSGPELVKPGASVKMSCKASGYTFANHVIHWVKQKPGQGLEWIGYIYPYNDGTKYNEKFKDKATLTSDKSSTTAYMDLSSLASEDSAVYYCARGGYYTYDDWGQGTTLTVSSGGGGSGGGGSGGGGSDVVMTQSPLSLPVSLGDQASISCRSSQSLVHSNGKTYLHWYLQKPGQSPKLLIYKVSNRFSGVPDRFSGSGSVTDFTLMISRVEAEDLGVYFCSQSTHVPYTFGGGTKLEIKDYKDDDDK
notes: Single chain bivalent antibody; also called pCHOM2(Fv)2
As for B2, the binding result in test [2] is “binds”.

B3: MABL2-scFv <LH-0> (scFv)
scFv: DVVMTQSPLSLPVSLGDQASISCRSSQSLVHSNGKTYLHWYLQKPGQSPKLLIYKVSNRFSGVPDRFSGSGSVTDFTLMISRVEAEDLGVYFCSQSTHVPYTFGGGTKLEIKQVQLQQSGPELVKPGASVKMSCKASGYTFANHVIHWVKQKPGQGLEWIGYIYPYNDGTKYNEKFKDKATLTSDKSSTTAYMDLSSLASEDSAVYYCARGGYYTYDDWGQGTTLTVSSDYKDDDDK
notes: COS7 culture supernatant; also called CF2LH-0/pCOS1
With B3, the binding result in test [2] was “binds”.

B4: reconstructed 12B5 single chain Fv (sc12B5), culture supernatant of COS-7 cells (scFv)
scFv: QVQLVQSGGGLVRPGGSLSLSCAVSGITLRTYGMHWVRQAPGKGLEWVAGISFDGRSEYYADSVQGRFTISRDSSKNTLYLQMNSLRAEDTAVYYCARGAHYGFDIWGQGTMVTVSSGGGGSGGGGSGGGGSDIQMTQSPSTLSASIGDRVTITCRASEGIYHWLAWYQQKPGKAPKLLIYKASSLASGAPSRFSGSGSGTDFTLTISSLQPDDFATYYCQQYSNYPLTFGGGTKLEIKDYKDDDDK
On to B4, for which the “ED50, TPO-like agonist activity (proliferation of BaF/mpl cells, WST-8)” value (shortened to “ED50 … (proliferation of BaF/mpl cells, WST-8)”) in test [3] came to 75 nM.

B5: sc12B5 dimer (scFv)
scFv: B4 scFv
For the molecule B5, in test [3], the “ED50 … (proliferation of BaF/mpl cells, WST-8)” value is 10.1 nM and the “fold agonist activity against monovalent sc12B5” value was roughly 400 fold.

B6: sc12B5 monomer (scFv)
scFv: B4 scFv
As to B6, in test [3], the “ED50 … (proliferation of BaF/mpl cells, WST-8)” value was found to be 4440 nM.

B7: chimera MABL-1 antibody (antibody, V domains shown)
VH: QVQLQQSGPDLVKPGASVKMSCKASGYTFVNHVMHWVKQKPGQGLEWIGYIYPYNDGTKYNEKFKGKATLTSEKSSSAAYMELSSLASEDSAVYYCARGGYYSYDDWGQGTTLTVSS
VL: DVVMTQTPLSLPVSLGDQASISCRSSQSLLHSKGNTYLQWYLQKPGQSPKLLIYKVSNRFSGVPDRFSGSGSGTDFTLKISRVEAEDLGVYFCSQSTHVPYTSGGGTKLEIK
notes: Mouse V regions cloned into HEF-gamma and HEF-kappa vectors with human C regions; COS7 culture supernatant
For B7, the binding result in test [4] is recorded as “binds”.

B8: chimera MABL-2 antibody (antibody, V domains shown)
VH: B7 VH with D10E, V30A, M34I, G66D, E73D, S77T, A78T, E82D, S103T
VL: B7 VL with T7S, L30V, K33N, N35K, Q39H, G73V, K79M, S103F
notes: as for B7
Take B8: the binding result in test [4] is “binds”.

B9: antibody 12B5 (IgG) (antibody, V domains shown)
VH: QVQLVQSGGGLVRPGGSLSLSCAVSGITLRTYGMHWVRQAPGKGLEWVAGISFDGRSEYYADSVQGRFTISRDSSKNTLYLQMNSLRAEDTAVYYCARGAHYGFDIWGQGTMVTVSS
VL: DIQMTQSPSTLSASIGDRVTITCRASEGIYHWLAWYQQKPGKAPKLLIYKASSLASGAPSRFSGSGSGTDFTLTISSLQPDDFATYYCQQYSNYPLTFGGGTKLEIK
Turning to B9, the “ED50 … (proliferation of BaF/mpl cells, WST-8)” value in test [3] was found to be 29 nM.

B10: 12B5Fab (Fab, V domains shown)
VH: B9 VH
VL: B9 VL
As for B10, the “ED50 … (proliferation of BaF/mpl cells, WST-8)” value in test [3] turned out to be 34700 nM.

B11: MABL2-scFv <HL-0> (scFv)
scFv: QVQLQQSGPELVKPGASVKMSCKASGYTFANHVIHWVKQKPGQGLEWIGYIYPYNDGTKYNEKFKDKATLTSDKSSTTAYMDLSSLASEDSAVYYCARGGYYTYDDWGQGTTLTVSSDVVMTQSPLSLPVSLGDQASISCRSSQSLVHSNGKTYLHWYLQKPGQSPKLLIYKVSNRFSGVPDRFSGSGSVTDFTLMISRVEAEDLGVYFCSQSTHVPYTFGGGTKLEIKDYKDDDDK
notes: COS7 culture supernatant; also called CF2HL-0/pCOS1
Regarding B11, in test [2], the binding result was “binds”.

Source of the values: patent US20040058393A1 (published 2004).
